To fix the notation:
B1: INTS3 (parent)
chain: DLNSKGKKREFRFHPIKETVVEEP

Among the data in the supplement of paper PMC10567573 are protein stability index values, retold here.
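Note: lentivirally expressed fusions sorted by FACS into six bins by GFP to DsRed ratio, PSI derived from sequencing read proportions per bin multiplied by bin number.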

The series covers variants of B1. Kind of series: protein stability index of a GFP-peptide fusion (GPS, HEK-293T) (PSI 1-6); higher = more stable. The following applies: c terminus: a fixed tail appended.
On to DLNSKGKKREFRFHYIKETVVEEP [P15Y], for which the protein stability index worked out at 2.74. DLNSKGKKREFRFHPINETVVEEP [K17N]: the protein stability index came out at 2.6. As for DLNSKGKKREFRFHPIYETVVEEP [K17Y], the protein stability index is 2.

Regarding DLNSKGKKREFRFHPIGETVVEEP [K17G], the protein stability index was determined as 2.91. Under DLNSKGKKREFRFHPIWETVVEEP [K17W] stands 1.8; under DLNSKGKKREFRFHPITETVVEEP [K17T], 2.77. Consider DLNSKGKKREFRFHPIFETVVEEP [K17F], for which the protein stability index was determined as 2.05. Under DLNSKGKKREFRFHPIIETVVEEP [K17I] stands 1.94; under DLNSKGKKREFRFHPISETVVEEP [K17S], 3.25; under DLNSKGKKREFRFHPIMETVVEEP [K17M], 2.69. The result for DLNSKGKKREFRFHPICETVVEEP [K17C] reads 2.67. Regarding DLNSKGKKREFRFHPIAETVVEEP [K17A], the protein stability index was 2.5. As to DLNSKGKKREFRFHPIVETVVEEP [K17V], the protein stability index was 2.69. On to DLNSKGKKREFRFHPIHETVVEEP [K17H], for which the protein stability index worked out at 2.31. In the case of DLNSKGKKREFRFHPIRETVVEEP [K17R], the protein stability index amounted to 1.69. As for DLNSKGKKREFRFHPIDETVVEEP [K17D], the protein stability index is 3.93. With DLNSKGKKREFRFHPIPETVVEEP [K17P], the protein stability index amounted to 1.98. For DLNSKGKKREFRFHPILETVVEEP [K17L], the protein stability index stood at 3.26. With DLNSKGKKREFRFHPIEETVVEEP [K17E], the protein stability index was determined as 3.48.

On to DLNSKGKKREFRFHPIQETVVEEP [K17Q], for which the protein stability index came out at 3.01.

As to DLNSKGKKREFRFVPIKETVVEEP [H14V], the protein stability index came to 2.73.

Turning to DLNSKGKKREFRFYPIKETVVEEP [H14Y], the protein stability index amounted to 3.74. With DLNSKGKKREFRFQPIKETVVEEP [H14Q], the protein stability index is 3.78. As for DLNSKGKKREFRFRPIKETVVEEP [H14R], the protein stability index was determined as 3.88. On to DLNSKGKKREFRFSPIKETVVEEP [H14S], for which the protein stability index stood at 3.89. As to DLNSKGKKREFRFTPIKETVVEEP [H14T], the protein stability index worked out at 3.7. As to DLNSKGKKREFRFWPIKETVVEEP [H14W], the protein stability index was 3.44. Under DLNSKGKKREFRFPPIKETVVEEP [H14P] stands 4.35. Consider DLNSKGKKREFRFNPIKETVVEEP [H14N], for which the protein stability index came to 3.84.

With DLNSKGKKREFRFHPIKETVVEEE [P24E], the protein stability index amounted to 2.6. As to DLNSKGKKREFRFHPIKETVVEEA [P24A], the protein stability index worked out at 2.2. The result for DLNSKGKKREFRFHPIKETVVEED [P24D] reads 2.4. As to DLNSKGKKREFRFHPIKETVVEEC [P24C], the protein stability index was found to be 2.54. Turning to DLNSKGKKREFRFHPIKETVVEEI [P24I], the protein stability index stood at 1.68. In the case of DLNSKGKKREFRFHPIKETVVEEF [P24F], the protein stability index came to 2.81. Take DLNSKGKKREFRFHPIKETVVEEG [P24G]: the protein stability index stood at 2.25. Turning to DLNSKGKKREFRFHPIKETVVEEH [P24H], the protein stability index stood at 2.36. Take DLNSKGKKREFRFHPIKETVVYEP [E22Y]: the protein stability index stood at 1.87. DLNSKGKKREFRFHPIKETVVIEP [E22I]: the protein stability index was determined as 2.21. As to DLNSKGKKREFRFHPIKETVVVEP [E22V], the protein stability index came out at 1.69.

Regarding DLNSKGKKREFRFHPIKETVVKEP [E22K], the protein stability index was found to be 2.1. On to DLNSKGKKREFRFHPIKETVVSEP [E22S], for which the protein stability index amounted to 1.92. Under DLNSKGKKREFRFHPIKETVVTEP [E22T] stands 1.79. Turning to DLNSKGKKREFRFHPIKETVVDEP [E22D], the protein stability index came to 2.07.

With DLNSKGKKREFRFHPIKETVVFEP [E22F], the protein stability index was determined as 2.01. Regarding DLNSKGKKREFRFHPIKETVVAEP [E22A], the protein stability index was 2.22. Turning to DLNSKGKKREFRFHPIKETVVGEP [E22G], the protein stability index was 1.79. For the variant DLNSKGKKREFRFHPIKETVVNEP [E22N], the protein stability index amounted to 1.69.

As to DLNSKGKKREFRFHPIKETVVCEP [E22C], the protein stability index worked out at 2.06. Turning to DLNSKGKKREFRFHPIKETVVPEP [E22P], the protein stability index is 1.96. Take DLNSKGKKREFRFHPIKETVVHEP [E22H]: the protein stability index is 1.91.

As to DLNSKGKKREFRFHPIKETVVREP [E22R], the protein stability index was found to be 1.75. Regarding DLNSKGKKREFRFHPIKETVVQEP [E22Q], the protein stability index was found to be 1.64.

For DLNSKGKKREFRFHPIKETVVWEP [E22W], the protein stability index was 2.11. On to DLNSKGKKREFRFHPIKETVVLEP [E22L], for which the protein stability index amounted to 1.91. The result for DLNSKGKKREFRFHPIKETVVMEP [E22M] reads 1.57.

As for DLNSKGKKREFRFHPHKETVVEEP [I16H], the protein stability index came out at 2.31. Take DLNSKGKKREFRFHPKKETVVEEP [I16K]: the protein stability index was found to be 2.21. On to DLNSKGKKREFRFHPQKETVVEEP [I16Q], for which the protein stability index is 2.34. Under DLNSKGKKREFRFHPWKETVVEEP [I16W] stands 2.12; under DLNSKGKKREFRFHPDKETVVEEP [I16D], 3.02; under DLNSKGKKREFRFHPNKETVVEEP [I16N], 3.04.

Consider DLNSKGKKREFRFHPAKETVVEEP [I16A], for which the protein stability index stood at 2.06. Under DLNSKGKKREFRFHPFKETVVEEP [I16F] stands 1.88; under DLNSKGKKREFRFHPCKETVVEEP [I16C], 1.84. Regarding DLNSKGKKREFRFHPVKETVVEEP [I16V], the protein stability index was determined as 2.71.

Consider DLNSKGKKREFRFHPGKETVVEEP [I16G], for which the protein stability index was 2.29.

Turning to DLNSKGKKREFRFHPSKETVVEEP [I16S], the protein stability index turned out to be 1.99. DLNSKGKKREFRFHPYKETVVEEP [I16Y]: the protein stability index came to 2.36. For the variant DLNSKGKKREFRFHPEKETVVEEP [I16E], the protein stability index amounted to 2.96. Take DLNSKGKKREFRFHPLKETVVEEP [I16L]: the protein stability index was 2.24. For the variant DLNSKGKKREFRFHPPKETVVEEP [I16P], the protein stability index is 2.28. For DLNSKGKKREFRFHPMKETVVEEP [I16M], the protein stability index worked out at 2.79. As for DLNSKGKKREFRFHPRKETVVEEP [I16R], the protein stability index was 1.77. Under DLNSKGKKREFRFHPTKETVVEEP [I16T] stands 2.12; under DLNSKGKKREFRFHPIKEYVVEEP [T19Y], 1.92; under DLNSKGKKREFRFHPIKEVVVEEP [T19V], 1.86. Consider DLNSKGKKREFRFHPIKECVVEEP [T19C], for which the protein stability index was determined as 2.34.

On to DLNSKGKKREFRFHPIKEQVVEEP [T19Q], for which the protein stability index amounted to 1.96. In the case of DLNSKGKKREFRFHPIKEWVVEEP [T19W], the protein stability index was determined as 2.05. As for DLNSKGKKREFRFHPIKERVVEEP [T19R], the protein stability index is 2.04. For the variant DLNSKGKKREFRFHPIKEDVVEEP [T19D], the protein stability index worked out at 2.87. Regarding DLNSKGKKREFRFHPIKEEVVEEP [T19E], the protein stability index turned out to be 2.29. As for DLNSKGKKREFRFHPIKELVVEEP [T19L], the protein stability index came out at 2.74. Turning to DLNSKGKKREFRFHPIKEFVVEEP [T19F], the protein stability index came to 2.2. As for DLNSKGKKREFRFHPIKEGVVEEP [T19G], the protein stability index is 2.62. In the case of DLNSKGKKREFRFHPIKEAVVEEP [T19A], the protein stability index stood at 2.07. On to DLNSKGKKREFRFHPIKESVVEEP [T19S], for which the protein stability index turned out to be 2.12. Under DLNSKGKKREFRFHPIKENVVEEP [T19N] stands 2.31. For DLNSKGKKREFRFHPIKEMVVEEP [T19M], the protein stability index was 2.31.

As to DLNSKGKKREFRFHPIKEKVVEEP [T19K], the protein stability index was 2. For the variant DLNSKGKKREFRFHPIKEHVVEEP [T19H], the protein stability index amounted to 2.42. For the variant DLNSKGKKREFRFHPIKEPVVEEP [T19P], the protein stability index stood at 1.74. For the variant DLNSKGKKREFRFHPIKEIVVEEP [T19I], the protein stability index came to 1.94.
